This note sets out measurements from paper PMC9728937.

This experiment addresses FgSnt1^1-744-GST (Fusarium graminearum). Briefly: ITC. Conditions: enzyme.

Substance Cpk1-HIS yielded a Kd of 248 nM.
